Key:
Experiment in all cases: BLI Octet 384RED, antibody on Protein A sensor, Sortilin construct in solution
[1] = target: T1, Sortilin SORTECDBAP_tetra (tetraodon)
T1 construct: Fully tetraodon Sortilin ECD with BAP tag; also called tetraodon Sortilin
T1 chain: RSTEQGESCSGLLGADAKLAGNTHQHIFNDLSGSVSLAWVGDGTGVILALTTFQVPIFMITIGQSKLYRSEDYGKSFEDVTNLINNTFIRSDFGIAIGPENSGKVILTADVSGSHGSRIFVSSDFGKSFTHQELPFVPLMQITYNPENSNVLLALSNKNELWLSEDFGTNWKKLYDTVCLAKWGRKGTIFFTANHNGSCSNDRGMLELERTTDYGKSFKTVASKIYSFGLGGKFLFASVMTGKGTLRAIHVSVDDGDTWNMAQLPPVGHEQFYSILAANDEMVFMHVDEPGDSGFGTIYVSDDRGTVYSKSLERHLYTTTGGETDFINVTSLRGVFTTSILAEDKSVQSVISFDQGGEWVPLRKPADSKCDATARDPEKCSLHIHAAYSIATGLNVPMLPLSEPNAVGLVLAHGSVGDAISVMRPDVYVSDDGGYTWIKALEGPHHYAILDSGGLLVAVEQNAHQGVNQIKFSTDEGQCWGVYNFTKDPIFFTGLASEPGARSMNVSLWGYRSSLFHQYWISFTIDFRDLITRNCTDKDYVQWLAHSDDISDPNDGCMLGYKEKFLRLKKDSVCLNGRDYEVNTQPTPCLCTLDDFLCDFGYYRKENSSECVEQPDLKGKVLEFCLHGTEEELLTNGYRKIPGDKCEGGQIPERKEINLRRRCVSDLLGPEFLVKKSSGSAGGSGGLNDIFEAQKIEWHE
Procedure: (§1) Binding kinetics of anti-Sortilin HuMab antibodies to Sortilin were determined using Octet 384RED (Fortebio, Menlo Park, USA). HuMab solutions of 2 μg/ml were made by dilution in sample diluent (ForteBio, art. No. 18-5028). Prot A sensors (ForteBio, art. no. 18-0004) were prewetted with kinetics buffer (1:10 sample diluent in PBS) for at least 600 seconds. Subsequently sensors were immobilized with HuMab solution for 600 seconds. A baseline response was obtained by dipping in kinetics buffer for 120 seconds. Association of SORTECD constructs was performed during a 1000 seconds incubation. This was followed by dissociation in kinetics buffer for 100 seconds. After dissociation, sensors were regenerated (10 mM Glycine pH 1.0) and neutralized (kinetics buffer) 3 times for 5 seconds. […] A molecular weight of 76.8 kDA was used for SORTECDHis. Data was fitted with ForteBio Analysis 6.4 software, using a global full fit.

[2] = target: T2, Sortilin SORTECDBAP_hB01-05 (human/tetraodon chimera)
T2 construct: Shuffle construct
T2 chain: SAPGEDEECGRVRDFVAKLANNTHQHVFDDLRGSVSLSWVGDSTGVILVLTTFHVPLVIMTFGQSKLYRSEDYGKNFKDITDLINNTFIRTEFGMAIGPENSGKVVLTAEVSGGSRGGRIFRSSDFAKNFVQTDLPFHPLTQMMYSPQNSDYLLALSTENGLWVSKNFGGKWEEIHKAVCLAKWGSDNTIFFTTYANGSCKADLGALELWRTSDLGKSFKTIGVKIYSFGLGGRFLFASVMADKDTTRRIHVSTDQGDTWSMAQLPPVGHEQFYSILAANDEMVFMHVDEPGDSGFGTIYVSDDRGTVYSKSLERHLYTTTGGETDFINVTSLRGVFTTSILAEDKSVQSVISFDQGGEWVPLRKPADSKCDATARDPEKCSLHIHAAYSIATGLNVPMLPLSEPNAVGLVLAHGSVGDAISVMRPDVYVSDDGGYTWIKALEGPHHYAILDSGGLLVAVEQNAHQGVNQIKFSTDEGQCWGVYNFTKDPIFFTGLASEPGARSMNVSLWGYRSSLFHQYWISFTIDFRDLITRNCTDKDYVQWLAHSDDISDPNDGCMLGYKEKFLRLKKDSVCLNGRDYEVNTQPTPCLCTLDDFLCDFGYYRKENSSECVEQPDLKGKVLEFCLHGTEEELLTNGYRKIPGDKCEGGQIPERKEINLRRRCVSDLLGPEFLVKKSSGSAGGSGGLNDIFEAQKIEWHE
Procedure: as §1

[3] = target: T3, Sortilin SORTECDBAP_hB45678 (human/tetraodon chimera)
T3 construct: Shuffle construct
T3 chain: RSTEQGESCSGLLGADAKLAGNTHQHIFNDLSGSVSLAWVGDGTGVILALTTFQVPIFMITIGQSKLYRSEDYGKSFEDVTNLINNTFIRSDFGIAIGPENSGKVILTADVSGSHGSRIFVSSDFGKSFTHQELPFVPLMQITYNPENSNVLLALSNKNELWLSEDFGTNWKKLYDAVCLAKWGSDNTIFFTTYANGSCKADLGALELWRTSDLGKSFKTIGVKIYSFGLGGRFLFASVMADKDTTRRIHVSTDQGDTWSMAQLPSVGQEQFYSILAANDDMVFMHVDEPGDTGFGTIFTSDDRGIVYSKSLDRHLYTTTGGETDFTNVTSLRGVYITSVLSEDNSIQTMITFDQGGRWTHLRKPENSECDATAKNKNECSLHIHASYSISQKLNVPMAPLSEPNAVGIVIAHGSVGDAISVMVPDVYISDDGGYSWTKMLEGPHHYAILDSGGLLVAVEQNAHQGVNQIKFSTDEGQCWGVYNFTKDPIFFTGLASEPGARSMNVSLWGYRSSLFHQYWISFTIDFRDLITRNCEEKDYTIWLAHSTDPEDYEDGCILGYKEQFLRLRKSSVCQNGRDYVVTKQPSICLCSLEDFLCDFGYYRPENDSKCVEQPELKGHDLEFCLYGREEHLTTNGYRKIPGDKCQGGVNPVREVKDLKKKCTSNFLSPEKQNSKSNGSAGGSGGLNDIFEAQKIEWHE
Procedure: as §1

Measured: binding result

B1: 1320 (antibody, V domains shown)
VH: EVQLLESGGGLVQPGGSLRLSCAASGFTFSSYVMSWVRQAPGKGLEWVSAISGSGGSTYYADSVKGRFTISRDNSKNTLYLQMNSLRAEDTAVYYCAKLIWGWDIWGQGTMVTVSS
VL: EIVLTQSPATLSLSPGERATLSCRASQSVSSYLAWYQQRPGQAPRLLIYDASNRATGIPARFSGSGSGTDFTLSISSLEPEDFAVYYCQQRTNWSITFGQGTRLEIK
notes: also called IgG1-6003-1320; Antibody 1320
no binding (tested: 10 µg/ml construct): all assays above

Reference: patent US20230159643A1 (H LUNDBECK A S, published 2023)
